Results taken from US20100261647A1 (ARMAGEN TECHNOLOGIES, published 2010).

Tests used:
[1] = target: T1, human insulin receptor extracellular domain (HIR ECD) (human, UniProt P06213 28-956, limits assumed); test: ELISA on plated HIR ECD, detection with biotinylated goat anti-human IgG (H+L)
T1 construct: extracellular domain
Method: CHO cells permanently transfected with the HIR ECD were grown in serum free media (SFM), and the HIR ECD was purified with a wheat germ agglutinin affinity column.

[2] = target: T1, human insulin receptor extracellular …; test: competitive ligand binding assay, displacement of [125I]-murine HIRMAb from plated HIR ECD, Scatchard analysis
Method: CHO cells transfected with the HIR ECD were grown in serum free media (SFM), and the HIR ECD was purified with a wheat germ agglutinin affinity column.

EC50 [1]: 210 pM
Ki [2]: 630 pM
B1: chimeric HIRMAb (chimeric monoclonal antibody against the human insulin receptor) (antibody, human IgG1, kappa, V domains shown)
VH: QVQLQQSGPELVKPGALVKISCKASGYTFTNYDIHWVKQRPGQGLEWIGWIYPGDGSTKYNEKFKGKATLTADKSSSTAYMHLSSLTSEKSAVYFCAREWAYWGQGTLVTVSA
VL: DIQMTQSPSSLSASLGERVSLTCRASQDIGGNLYWLQQGPDGTIKRLIYATSSLDSGVPKRFSGSRSGSDYSLTISSLESEDFVDYYCLQYSSSPWTFGGGTKMEIKR
notes: Chimeric human IgG1/kappa
